2 proteins from patent US20060234940 can be followed below.

The target in this series is peptides of the growth hormone releasing factor (GRF) family.

B1: porcine kidney DP IV, wild type (protein)
chain: DSRRTYTLTDYLKSTFRVKFYTLQWISDHEYLYKQENNILLFNAEYGNSSIFLENSTFDELGYSTNDYSVSPDRQFILFEYNYVKQWRHSYTASYDIYDLNKRQLITEERIPNNTQWITWSPVGHKLAYVWNNDIYVKNEPNLSSQRITWTGKENVIYNGVTDWVYEEEVFSAYSALWWSPNGTFLAYAQFNDTEVPLIEYSFYSDESLQYPKTVRIPYPKAGAENPTVKFFVVDTRTLSPNASVTSYQIVPPASVLIGDHYLCGVTWVTEERISLQWIRRAQNYSIIDICDYDESTGRWISSVARQHIEISTTGWVGRFRPAEPHFTSDGNSFYKIISNEEGYKHICHFQTDKSNCTFITKGAWEVIGIEALTSDYLYYISNEHKGMPGGRNLYRIQLNDYTKVTCLSCELNPERCQYYSASFSNKAKYYQLRCFGPGLPLYTLHSSSSDKELRVLEDNSALDKMLQDVQMPSKKLDVINLHGTKFWYQMILPPHFDKSKKYPLLIEVYAGPCSQKVDTVFRLSWATYLASTENIIVASFDGRGSGYQGDKIMHAINRRLGTFEVEDQIEATRQFSKMGFVDDKRIAIWGWSYGGYVTSMVLGAGSGVFKCGIAVAPVSKWEYYDSVYTERYMGLPTPEDNLDYYRNSTVMSRAENFKQVEYLLIHGTADDNVHFQQSAQLSKALVDAGVDFQTMWYTDEDHGIASNMAHQHIYTHMSHFLKQCFSLP
Take B1: the “hydrolysis (MALDI-TOF MS, capillary zone electrophoresis)” value was “All peptides were hydrolyzed by porcine DP IV, recombinant human DP IV or DP IV activity of the human serum”.

B2: DP IV activity of the human serum (protein)
chain: SRKTYTLTDYLKNTYRLKLYSLRWISDHEYLYKQENNILVFNAEYGNSSVFLENSTFDEFGHSINDYSISPDGQFILLEYNYVKQWRHSYTASYDIYDLNKRQLITEERIPNNTQWVTWSPVGHKLAYVWNNDIYVKIEPNLPSYRITWTGKEDIIYNGITDWVYEEEVFSAYSALWWSPNGTFLAYAQFNDTEVPLIEYSFYSDESLQYPKTVRVPYPKAGAVNPTVKFFVVNTDSLSSVTNATSIQITAPASMLIGDHYLCDVTWATQERISLQWLRRIQNYSVMDICDYDESSGRWNCLVARQHIEMSTTGWVGRFRPSEPHFTLDGNSFYKIISNEEGYRHICYFQIDKKDCTFITKGTWEVIGIEALTSDYLYYISNEYKGMPGGRNLYKIQLSDYTKVTCLSCELNPERCQYYSVSFSKEAKYYQLRCSGPGLPLYTLHSSVNDKGLRVLEDNSALDKMLQNVQMPSKKLDFIILNETKFWYQMILPPHFDKSKKYPLLLDVYAGPCSQKADTVFRLNWATYLASTENIIVASFDGRGSGYQGDKIMHAINRRLGTFEVEDQIEAARQFSKMGFVDNKRIAIWGWSYGGYVTSMVLGSGSGVFKCGIAVAPVSRWEYYDSVYTERYMGLPTPEDNLDHYRNSTVMSRAENFKQVEYLLIHGTADDNVHFQQSAQISKALVDVGVDFQAMWYTDEDHGIASSTAHQHIYTHMSHFIKQCFSLP
For B2, the “hydrolysis (MALDI-TOF MS, capillary zone electrophoresis)” value was “All peptides were hydrolyzed by porcine DP IV, recombinant human DP IV or DP IV activity of the human serum”.
